Experimental data reported in US20230131727A1 (Janssen / Centocor, published 2023).

How the values were obtained:
[1] = target: T1, human PSMA (prostate-specific membrane antigen) on cells (human, UniProt Q04609 1-750); assay: cell-based or functional assay
[2] = target: T1, human PSMA (prostate-specific membrane …); assay: cell-based or functional assay; remark: listed apart in the source

T1 sequence (Q04609 whole entry): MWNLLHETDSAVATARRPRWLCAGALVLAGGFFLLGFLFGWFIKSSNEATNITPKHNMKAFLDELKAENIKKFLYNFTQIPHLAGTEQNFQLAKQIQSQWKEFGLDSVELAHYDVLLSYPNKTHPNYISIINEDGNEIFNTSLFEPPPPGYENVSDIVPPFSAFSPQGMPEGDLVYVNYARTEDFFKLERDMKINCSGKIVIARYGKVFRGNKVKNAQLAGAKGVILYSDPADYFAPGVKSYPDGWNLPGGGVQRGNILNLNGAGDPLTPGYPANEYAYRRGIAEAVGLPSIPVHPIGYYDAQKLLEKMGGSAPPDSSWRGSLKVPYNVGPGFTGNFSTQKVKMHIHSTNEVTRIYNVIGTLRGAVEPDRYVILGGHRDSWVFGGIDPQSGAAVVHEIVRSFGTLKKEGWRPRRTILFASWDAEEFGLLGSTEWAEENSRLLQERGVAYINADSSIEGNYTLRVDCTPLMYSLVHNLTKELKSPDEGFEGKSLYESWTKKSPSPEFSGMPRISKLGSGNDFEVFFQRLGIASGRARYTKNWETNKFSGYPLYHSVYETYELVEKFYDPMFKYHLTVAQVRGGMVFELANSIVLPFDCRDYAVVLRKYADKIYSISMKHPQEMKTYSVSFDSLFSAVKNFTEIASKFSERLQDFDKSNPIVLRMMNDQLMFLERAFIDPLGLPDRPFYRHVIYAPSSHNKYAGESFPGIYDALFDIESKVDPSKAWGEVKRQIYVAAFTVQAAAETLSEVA

B1: PSMB1157 conjugated to maleimide-PEG4-vcPAB-MMAF (ADC) (antibody, human IgG1, lambda, V domains shown)
VH: EVQLVESGGGVVQPGRSLRLSCAASVRTFSGYGMHWVRQVPGKGLEWVAVISYDGSNRYYADSVKGRFTISRDNSKNTLYLQMNSLRTEDTAVYYCARDGNWGSLDLYFDLWGRGTLVTVSS
VL: QSVLTQPPSVSGAPGQRVTISCTGSSSNIGADYDVHWYQQLPGTAPKLLIYVNNNRPSGVPDRFSGSRSGTSASLAITGLQADDEADYYCQSYDNTLSGVVFGGGTKLTVLG
modifications: reduced cysteines carry maleimide-PEG4-vcPAB-MMAF or N-ethyl maleimide; sites not given
**Q.** How did the “C4-2B IC50” value [1] turn out when B1 was run?
**A.** 0.03 nM

**Q.** What about the “MMAF IC25 (nM), 22RV1 cells” value [2] of the same binder?
**A.** 0.4 nM

B2: PSMB1156 conjugated to maleimide-PEG4-vcPAB-MMAF (ADC) (antibody, human IgG1, lambda, V domains shown)
VH: EVQLVESGGGVVQPGRSLRLSCAASGFTFTSYGMHWVRQAPGKGLEWVAVISYDGSNKYYADSVKGRFTISRDNSKNTLYLQMNSLRAEDTAVYYCAREHYDSSGYYHGYYGMDVWGQGTTVTVSS
VL: not shown
modifications: reduced cysteines carry maleimide-PEG4-vcPAB-MMAF or N-ethyl maleimide; sites not given
**Q.** Which results are given for B2?
**A.** C4-2B IC50 [1]: 0.04 nM; MMAF IC25 (nM), 22RV1 cells [2]: 0.9 nM

B3: PSMB1183 conjugated to maleimide-PEG4-vcPAB-MMAF (ADC) (antibody, human IgG1, lambda, V domains shown)
VH: QVQLQESGPGLVKSSETLSLTCTVSGGSISSYYWNWIRQPAGKGLEWIGRIYSSGNTDYNPSLKSRVTMSVDTSKNQFSLKLISVTAADTAVYYCARGRGANVGLFDYWGQGTLVTVSS
VL: QSALTQPPSVSGAPGQRVTISCTGSNSNIGANYDVHWYQHLPGTAPKLLIYGNINRPLGVPDRFSGSRSGTSASLAITGLQAEDEADYYCQSYDFSLSGSVFGVGTKLTVLG
modifications: reduced cysteines carry maleimide-PEG4-vcPAB-MMAF or N-ethyl maleimide; sites not given
**Q.** For B3, which “C4-2B IC50” value [1] is on record?
**A.** 0.03 nM

B4: PSMB1154 conjugated to maleimide-PEG4-vcPAB-MMAF (ADC) (antibody, human IgG1, lambda, V domains shown)
VH: EVQLVESGGGEVQPGRSLRLTCAVSGFTLSRYGMHWVRQAPGKGLEWAALISYDGSNRYYADSVKGRFTISRDNSKNTVFLQMNSLRAEDTAVYYCARERESSGWFEGYFDYWGQGTTVTVSS
VL: QLVLTQPPSVSVAPGQTARITCGGNNIGSKSVHWYQQKPGQAPVLVVYDNSDRPSGIPERFSGSNSGNTATLTISRVEVGDEADYYCQVWDSSSDHVVFGGGTKLTVLG
modifications: reduced cysteines carry maleimide-PEG4-vcPAB-MMAF or N-ethyl maleimide; sites not given
**Q.** What does the source list for B4?
**A.** C4-2B IC50 [1]: 0.03 nM; MMAF IC25 (nM), 22RV1 cells [2]: 0.1 nM

B5: PSMB1154 conjugated to MC-GGFG-DX8951 (ADC) (antibody, human IgG1, lambda, DAR 8, V domains shown)
VH: EVQLVESGGGEVQPGRSLRLTCAVSGFTLSRYGMHWVRQAPGKGLEWAALISYDGSNRYYADSVKGRFTISRDNSKNTVFLQMNSLRAEDTAVYYCARERESSGWFEGYFDYWGQGTTVTVSS
VL: QLVLTQPPSVSVAPGQTARITCGGNNIGSKSVHWYQQKPGQAPVLVVYDNSDRPSGIPERFSGSNSGNTATLTISRVEVGDEADYYCQVWDSSSDHVVFGGGTKLTVLG
modifications: reduced cysteines carry MC-GGFG-DX8951; DAR 8.0
**Q.** For B5, which “DX8951 IC50 (nM), 22RV1 cells” value [2] is on record?
**A.** 0.8 nM

B6: PSMB1157 conjugated to MC-GGFG-DX8951 (ADC) (antibody, human IgG1, lambda, DAR 8, V domains shown)
VH: EVQLVESGGGVVQPGRSLRLSCAASVRTFSGYGMHWVRQVPGKGLEWVAVISYDGSNRYYADSVKGRFTISRDNSKNTLYLQMNSLRTEDTAVYYCARDGNWGSLDLYFDLWGRGTLVTVSS
VL: QSVLTQPPSVSGAPGQRVTISCTGSSSNIGADYDVHWYQQLPGTAPKLLIYVNNNRPSGVPDRFSGSRSGTSASLAITGLQADDEADYYCQSYDNTLSGVVFGGGTKLTVLG
modifications: reduced cysteines carry MC-GGFG-DX8951; DAR 8.0
**Q.** With B6 as the binder, how does the “DX8951 IC50 (nM), 22RV1 cells” value [2] read?
**A.** 2.2 nM

B7: PSMB1156 conjugated to MC-GGFG-DX8951 (ADC) (antibody, human IgG1, lambda, DAR 8, V domains shown)
VH: EVQLVESGGGVVQPGRSLRLSCAASGFTFTSYGMHWVRQAPGKGLEWVAVISYDGSNKYYADSVKGRFTISRDNSKNTLYLQMNSLRAEDTAVYYCAREHYDSSGYYHGYYGMDVWGQGTTVTVSS
VL: not shown
modifications: reduced cysteines carry MC-GGFG-DX8951; DAR 8.0
**Q.** Which “DX8951 IC50 (nM), 22RV1 cells” value [2] does the source give for B7 here?
**A.** 1.4 nM

B8: PSMB1183 conjugated to MC-GGFG-DX8951 (ADC) (antibody, human IgG1, lambda, DAR 8, V domains shown)
VH: QVQLQESGPGLVKSSETLSLTCTVSGGSISSYYWNWIRQPAGKGLEWIGRIYSSGNTDYNPSLKSRVTMSVDTSKNQFSLKLISVTAADTAVYYCARGRGANVGLFDYWGQGTLVTVSS
VL: QSALTQPPSVSGAPGQRVTISCTGSNSNIGANYDVHWYQHLPGTAPKLLIYGNINRPLGVPDRFSGSRSGTSASLAITGLQAEDEADYYCQSYDFSLSGSVFGVGTKLTVLG
modifications: reduced cysteines carry MC-GGFG-DX8951; DAR 8.0
**Q.** For B8, which “DX8951 IC50 (nM), 22RV1 cells” value [2] is on record?
**A.** 0.7 nM
